Target: GST-HA-ATG16L1-231–607 produced in yeast (extended WDD construct that includes residue 300), Q676U5
Assay: peptide microarray
Settings: chain shown with the change, probe purified from yeast, mean ± s.d., n=9 replicas, read off a plot

GST-HA-ATG16L1-231–607 produced in yeast (extended WDD construct that includes residue 300), Q676U5, sequence (Q676U5 231-607): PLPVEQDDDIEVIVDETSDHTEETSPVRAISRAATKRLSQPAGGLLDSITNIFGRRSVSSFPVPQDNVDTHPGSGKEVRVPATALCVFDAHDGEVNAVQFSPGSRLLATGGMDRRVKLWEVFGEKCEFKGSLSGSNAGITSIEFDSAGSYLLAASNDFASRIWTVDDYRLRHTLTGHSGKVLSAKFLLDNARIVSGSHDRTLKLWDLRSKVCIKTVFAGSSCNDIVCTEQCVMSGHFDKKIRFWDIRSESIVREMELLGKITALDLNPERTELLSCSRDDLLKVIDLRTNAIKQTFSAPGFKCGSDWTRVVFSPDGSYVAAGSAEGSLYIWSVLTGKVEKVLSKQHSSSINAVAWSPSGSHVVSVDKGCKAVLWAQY

percent of parent (parent: est. 100, scale: % of WT peptide): 12
response (parent: est. 1100): 200 a.u. (OD635)
B1: TMEM59 263–281 peptide, wild type (19-amino acid peptide that includes the ATG16L1-binding motif), Q9BXS4 Y268A; E272A; Y277A; L280A (peptide)
chain: TAVEQAVPSAKLSIAGDAE
